# Patent US20160193299A1, “MODIFIED NUCLEOSIDE, NUCLEOTIDE, AND NUCLEIC ACID COMPOSITIONS” (Moderna Therapeutics, Inc., priority 2011, published 2016)
# How the values were obtained:
# [1] = test system: G-CSF; assay: Examples 21-22 non-human primate in vivo study, serum G-CSF ELISA; design: species or system cynomolgus monkey; details: for Average Serum Conentration: G-CSF
# Experimental: Formulations, listed in Table 31, were characterized by particle size, zeta potential, and encapsulation.
# LNP formulations, shown in Table 31 (above), were administered to non-human primates (NHP) (cynomolgus monkey) (n=2) as a bolus intravenous injection (IV) over approximately 30 seconds using a hypodermic needle, which may be attached to a syringe/abbocath or butterfly if needed. The NHP were administered a single modified mRNA IV dose of 0.05 mg/kg of EPO or G-CSF or 0.005 mg/kg of EPO in a dose volume of 0.5 mL/kg. The NHPs were bled 5-6 days before dosing with the modified mRNA LNP formulations to determine protein expression in the serum and a baseline complete blood count. After administration with the modified mRNA formulation the NHP were bled at 8, 24, 48 and 72 hours to determined protein expression. At 24 and 72 hours after administration the complete blood count of the NHP was also determined. Protein expression of G-CSF and EPO was determined by ELISA. Urine from the NHPs was collected over the course of the entire experiment and analyzed to evaluate clinical safety. Samples were collected from the NHPs after they were administered with G-CSF or EPO modified mRNA formulations to determine protein expression using ELISA. Clinical chemistry, hematology, urinalysis and cytokines of the non-human primates were also analyzed.
# (§1) LNP formulations, shown in Table 31 (above), were administered to non-human primates (NHP) (cynomolgus monkey) (n=2) as intravenous injection (IV). The NHP were administered a single modified mRNA IV dose of 0.5 mg/kg, 0.05 mg/kg or 0.005 mg/kg of G-CSF or EPO in a dose volume of 0.5 mL/kg. The NHPs were bled before dosing with the modified mRNA LNP formulations to determine protein expression in the serum and a baseline complete blood count. After administration with the G-CSF modified mRNA formulation the NHP were bled at 8, 24, 48 and 72 hours to determined protein expression. After administration with the EPO modified mRNA formulation the NHP were bled at 8, 24, 48, 72 hours and 7 days to determined protein expression.
# Samples collected from the NHPs after they were administered with G-CSF or EPO modified mRNA formulations were analyzed by ELISA to determine protein expression. Neutrophil and reticulocyte count was also determined pre-dose, 24 hours, 3 days, 7 days, 14 days and 18 days after administration of the modified G-CSF or EPO formulation.
# [2] = test system: hematocrit (HCT); assay: Example 22 non-human primate study, hematocrit (HCT); type: in vivo, cynomolgus monkey
# Experimental: as §1
# [3] = test system: interferon-alpha (IFN-alpha); assay: Example 22 non-human primate study, cytokine interferon-alpha (IFN-alpha); type: in vivo, cynomolgus monkey
# Experimental: as §1
# [4] = test system: human G-CSF; assay: Example 42A saline formulation IM, serum human G-CSF; type: in vivo, mice; details: G-CSF group: human G-CSF in mouse serum, IM 100 ug, 13 hours
# Experimental: The mice were bled at 13 hours after the injection to determine the concentration of the human polypeptide in serum in pg/mL (G-CSF groups measured human G-CSF in mouse serum and EPO groups measured human EPO in mouse serum).
# [5] = test system: mice; assay: Saline formulation: human G-CSF / EPO in mouse serum; type: in vivo; details: 100 ug in F. buffer, bled 13 hours after injection, G-CSF group
# Experimental: The mice were bled at 13 hours after the injection to determine the concentration of the human polypeptide in serum in pg/mL. (G-CSF groups measured human G-CSF in mouse serum and EPO groups measured human EPO in mouse serum).
# [6] = test system: G-CSF; assay: Example 16 lipid nanoparticle in vivo study, serum G-CSF ELISA; design: species or system mice; details: 100 ug
# [7] = Female NHP, 0.005 mg/kg, Pre-dose
# [8] = Female NHP, 0.05 mg/kg, Pre-dose
# [9] = Female NHP, 0.5 mg/kg, Pre-dose
# [10] = Male NHP, 0.005 mg/kg, Pre-dose
molecule,measurement,setting,value
"G-CSF: human G-CSF mRNA SEQ ID NO: 6, polyA ~160 nt, Cap1, fully modified with 5-methylcytosine and pseudouridine (nucleic acid, listed as Homo sapiens, polyA ~160, Cap1, 5mC/pseudouridine modified) GGGAAAUAAGAGAGAAAAGAAGAGUAAGAAGAAAUAUAAGAGCCACCAUGGCCGGUCCCGCGACCCAAAGCCCCAUGAAACUUAUGGCCCUGCAGUUGCUGCUUUGGCACUCGGCCCUCUGGACAGUCCAAGAAGCGACUCCUCUCGGACCUGCCUCAUCGUUGCCGCAGUCAUUCCUUUUGAAGUGUCUGGAGCAGGUGCGAAAGAUUCAGGGCGAUGGAGCCGCACUCCAAGAGAAGCUCUGCGCGACAUACAAACUUUGCCAUCCCGAGGAGCUCGUACUGCUCGGGCACAGCUUGGGGAUUCCCUGGGCUCCUCUCUCGUCCUGUCCGUCGCAGGCUUUGCAGUUGGCAGGGUGCCUUUCCCAGCUCCACUCCGGUUUGUUCUUGUAUCAGGGACUGCUGCAAGCCCUUGAGGGAAUCUCGCCAGAAUUGGGCCCGACGCUGGACACGUUGCAGCUCGACGUGGCGGAUUUCGCAACAACCAUCUGGCAGCAGAUGGAGGAACUGGGGAUGGCACCCGCGCUGCAGCCCACGCAGGGGGCAAUGCCGGCCUUUGCGUCCGCGUUUCAGCGCAGGGCGGGUGGAGUCCUCGUAGCGAGCCACCUUCAAUCAUUUUUGGAAGUCUCGUACCGGGUGCUGAGACAUCUUGCGCAGCCGUGAAGCGCUGCCUUCUGCGGGGCUUGCCUUCUGGCCAUGCCCUUCUUCUCUCCCUUGCACCUGUACCUCUUGGUCUUUGAAUAAAGCCUGAGUAGGAAG",Female NHP Serum G-CSF Concentration,"[1]; IV 0.005 mg/kg, 8 hours",559 pg/mL
same,Male NHP Serum G-CSF Concentration,"[1]; IV 0.005 mg/kg, 8 hours",700 pg/mL
same,Female NHP Serum G-CSF Concentration,"[1]; IV 0.005 mg/kg, 24 hours",155 pg/mL
same,Male NHP Serum G-CSF Concentration,"[1]; IV 0.005 mg/kg, 24 hours",<39 pg/mL
same,Female NHP Serum G-CSF Concentration,"[1]; IV 0.005 mg/kg, 48 hours",<39 pg/mL
same,Male NHP Serum G-CSF Concentration,"[1]; IV 0.005 mg/kg, 48 hours",<39 pg/mL
same,Female NHP Serum G-CSF Concentration,"[1]; IV 0.005 mg/kg, 72 hours",<39 pg/mL
same,Male NHP Serum G-CSF Concentration,"[1]; IV 0.005 mg/kg, 72 hours",<39 pg/mL
same,Female NHP Serum G-CSF Concentration,"[1]; IV 0.005 mg/kg, Pre-bleed",<39 pg/mL
same,Male NHP Serum G-CSF Concentration,"[1]; IV 0.005 mg/kg, Pre-bleed",<39 pg/mL
same,Female NHP Serum G-CSF Concentration,"[1]; IV 0.05 mg/kg, 24 hours",722 pg/mL
same,Male NHP Serum G-CSF Concentration,"[1]; IV 0.05 mg/kg, 24 hours",307 pg/mL
same,Female NHP Serum G-CSF Concentration,"[1]; IV 0.5 mg/kg, 8 hours","43,525 pg/ml"
same,Male NHP Serum G-CSF Concentration,"[1]; IV 0.5 mg/kg, 8 hours","43,594 pg/ml"
same,Female NHP Serum G-CSF Concentration,"[1]; IV 0.5 mg/kg, 24 hours","11,374 pg/ml"
same,Male NHP Serum G-CSF Concentration,"[1]; IV 0.5 mg/kg, 24 hours","3,628 pg/ml"
same,Female NHP Serum G-CSF Concentration,"[1]; IV 0.5 mg/kg, 48 hours","1,100 pg/ml"
same,Male NHP Serum G-CSF Concentration,"[1]; IV 0.5 mg/kg, 48 hours",833 pg/mL
same,Female NHP Serum G-CSF Concentration,"[1]; IV 0.5 mg/kg, 72 hours",<39 pg/mL
same,Male NHP Serum G-CSF Concentration,"[1]; IV 0.5 mg/kg, 72 hours",306 pg/mL
same,Female NHP Serum G-CSF Concentration,"[1]; IV 0.5 mg/kg, Pre-bleed",<39 pg/mL
same,Male NHP Serum G-CSF Concentration,"[1]; IV 0.5 mg/kg, Pre-bleed",<39 pg/mL
same,Average Serum Conentration,"[1]; NHP, IV 0.05 mg/kg, 8 hours","2,506 pg/ml"
same,Average Serum Conentration,"[1]; NHP, IV 0.05 mg/kg, 24 hours",515 pg/mL
same,Average Serum Conentration,"[1]; NHP, IV 0.05 mg/kg, 48 hours",0 pg/mL
same,Average Serum Conentration,"[1]; NHP, IV 0.05 mg/kg, 72 hours",0 pg/mL
same,Average Serum Conentration,"[1]; NHP, IV 0.05 mg/kg, Pre-bleed",0 pg/mL
same,G-CSF protein expression seen out to,"[1]; NHP, IV 0.05 mg/kg",24 h
same,G-CSF protein expression not detected beyond,"[1]; NHP, IV 0.5, 0.05, 0.005 mg/kg (Table 36)",≤ 72 h
same,HCT,"[2]; Female NHP, 0.005 mg/kg, 14/18 days",0.42 L/L
same,HCT,"[2]; Female NHP, 0.005 mg/kg, 24 hours",0.42 L/L
same,HCT,"[2]; Female NHP, 0.005 mg/kg, 3 days",0.41 L/L
same,HCT,"[2]; Female NHP, 0.005 mg/kg, 7 days",0.42 L/L
same,HCT,[2]; [7],0.42 L/L
same,HCT,"[2]; Female NHP, 0.05 mg/kg, 14/18 days",0.4 L/L
same,HCT,"[2]; Female NHP, 0.05 mg/kg, 24 hours",0.4 L/L
same,HCT,"[2]; Female NHP, 0.05 mg/kg, 3 days",0.39 L/L
same,HCT,"[2]; Female NHP, 0.05 mg/kg, 7 days",0.4 L/L
same,HCT,[2]; [8],0.44 L/L
same,HCT,"[2]; Female NHP, 0.5 mg/kg, 14/18 days",0.37 L/L
same,HCT,"[2]; Female NHP, 0.5 mg/kg, 24 hours",0.38 L/L
same,HCT,"[2]; Female NHP, 0.5 mg/kg, 3 days",0.38 L/L
same,HCT,"[2]; Female NHP, 0.5 mg/kg, 7 days",0.38 L/L
same,HCT,[2]; [9],0.43 L/L
same,HCT,"[2]; Male NHP, 0.005 mg/kg, 14/18 days",0.41 L/L
same,HCT,"[2]; Male NHP, 0.005 mg/kg, 24 hours",0.4 L/L
same,HCT,"[2]; Male NHP, 0.005 mg/kg, 3 days",0.4 L/L
same,HCT,"[2]; Male NHP, 0.005 mg/kg, 7 days",0.39 L/L
same,HCT,[2]; [10],0.42 L/L
same,HCT,"[2]; Male NHP, 0.05 mg/kg, 14/18 days",0.44 L/L
same,HCT,"[2]; Male NHP, 0.05 mg/kg, 24 hours",0.39 L/L
same,HCT,"[2]; Male NHP, 0.05 mg/kg, 3 days",0.41 L/L
same,HCT,"[2]; Male NHP, 0.05 mg/kg, 7 days",0.42 L/L
same,HCT,"[2]; Male NHP, 0.05 mg/kg, Pre-dose",0.44 L/L
same,HCT,"[2]; Male NHP, 0.5 mg/kg, 14/18 days",0.34 L/L
same,HCT,"[2]; Male NHP, 0.5 mg/kg, 24 hours",0.37 L/L
same,HCT,"[2]; Male NHP, 0.5 mg/kg, 3 days",0.39 L/L
same,HCT,"[2]; Male NHP, 0.5 mg/kg, 7 days",0.39 L/L
same,HCT,"[2]; Male NHP, 0.5 mg/kg, Pre-dose",0.46 L/L
same,IFN-alpha,"[3]; Female NHP, 0.005 mg/kg, 4 days",0 pg/mL
same,IFN-alpha,"[3]; Female NHP, 0.005 mg/kg, Day 1 + 8 hr",0 pg/mL
same,IFN-alpha,[3]; [7],0 pg/mL
same,IFN-alpha,"[3]; Female NHP, 0.05 mg/kg, 4 days",0 pg/mL
same,IFN-alpha,"[3]; Female NHP, 0.05 mg/kg, Day 1 + 8 hr",0 pg/mL
same,IFN-alpha,[3]; [8],0 pg/mL
same,IFN-alpha,"[3]; Female NHP, 0.5 mg/kg, 4 days",0 pg/mL
same,IFN-alpha,"[3]; Female NHP, 0.5 mg/kg, Day 1 + 8 hr",529.2 pg/mL
same,IFN-alpha,[3]; [9],0 pg/mL
same,IFN-alpha,"[3]; Male NHP, 0.005 mg/kg, 4 days",0 pg/mL
same,IFN-alpha,"[3]; Male NHP, 0.005 mg/kg, Day 1 + 8 hr",0 pg/mL
same,IFN-alpha,[3]; [10],0 pg/mL
same,IFN-alpha,"[3]; Male NHP, 0.05 mg/kg, 4 days",0 pg/mL
same,IFN-alpha,"[3]; Male NHP, 0.05 mg/kg, Day 1 + 8 hr",0 pg/mL
same,IFN-alpha,"[3]; Male NHP, 0.05 mg/kg, Pre-dose",0 pg/mL
same,IFN-alpha,"[3]; Male NHP, 0.5 mg/kg, 4 days",0 pg/mL
same,IFN-alpha,"[3]; Male NHP, 0.5 mg/kg, Day 1 + 8 hr",503.8 pg/mL
same,IFN-alpha,"[3]; Male NHP, 0.5 mg/kg, Pre-dose",0 pg/mL
same,Average Protein Product,[4],"19.8 Pg/mL, serum"
same,"Average Protein Product, serum (human G-CSF)",[5],45 pg/mL
same,G-CSF Serum Concentration 8-12 hours after administration,"[6]; IM, saline",~20 to 80 pg/mL
same,G-CSF Serum Concentration 8-12 hours after administration,[6]; IV (Lipoplex),~30 pg/mL
same,G-CSF Serum Concentration 8-12 hours after administration,"[6]; SC, saline",~10 to 40 pg/mL
